Data published in PMC12455585.
pKd: −log10 of the molar value.

Tests used:
Assay in all cases: fluorescence anisotropy
Details in all cases: 50 mM HEPES-NaOH pH 7.2, 50 mM NaCl (50-250 mM in salt series), 20 or 50 nM DNA, 60 min, 25 C
[1] = test system: OBMg (ComEC OB fold) WT (Moorella glycerini)
[2] = test system: OBMg R150A (Moorella glycerini)
[3] = test system: OBMg R188A (Moorella glycerini)
[4] = test system: OBMg K192A (Moorella glycerini)
[5] = test system: OBMg R175A (Moorella glycerini)
[6] = test system: OBMg R112A (Moorella glycerini)
[7] = test system: OBMg R115A (Moorella glycerini)
[8] = test system: OBMg R122A (Moorella glycerini)

Sequence	pKd [1]	binding signal (fold Kd increase vs WT) [2]	binding signal (fold Kd increase vs WT) [3]	binding signal (fold Kd increase vs WT) [4]	binding signal (fold Kd increase vs WT) [5]	binding signal (fold Kd increase vs WT) [6]	binding signal (fold Kd increase vs WT) [7]	binding signal (fold Kd increase vs WT) [8]
GTTCGCAACGAA [12-mer ssDNA]	6.10							
GTTCGCAACGAA (double strand) [12 bp dsDNA]	6.48	> 2	> 2	> 2	> 2	> 2	> 2	> 2
